Source: publication PMC6123778, “Structural rearrangements in the C-terminal domain homolog of Orange Carotenoid Protein are crucial for carotenoid transfer” (Communications Biology, 2018)
Blank lines part the entries; values can stand above or below the molecule they belong to.

Assays:
[1] = molecular target: T1, AnaCTDH (CTDH, C-terminal domain homolog of OCP, clade 2) (Nostoc sp. PCC 7120 = FACHB-418, UniProt A0ACD6B996, C103F); experiment: absorbance spectra after uptake from canthaxanthin-containing E. coli membranes; assay type: binding; conditions: 12 µM apo-dimer, membranes with 48 µM canthaxanthin, 33 °C, 1 h, darkness
T1 construct: gene all4940; C-terminal His-tag (plasmid pCDF-CTDHAna-C103F), expressed in E. coli; dimer about 34 kDa; the wild type was crystallised in apo form

[2] = molecular target: T2, AnaCTDH (CTDH, C-terminal domain homolog of OCP, clade 2) (Nostoc sp. PCC 7120 = FACHB-418, UniProt A0ACD6B996, C103F/DEL126-136); experiment: as above; assay type: binding; conditions: 12 µM apo-dimer, membranes with 48 µM canthaxanthin, 33 °C, 1 h, darkness; C-terminal tail deleted
T2 construct: gene all4940; C-terminal His-tag (plasmid pCDF-CTDHAna-C103F), expressed in E. coli; dimer about 34 kDa; the wild type was crystallised in apo form

[3] = molecular target: Anabaena (Nostoc) PCC 7120 apo-CTDH (carotenoid-free C-terminal domain homolog of Orange Carotenoid Protein) (Anabaena (Nostoc) PCC 7120); experiment: SEC; apo-AnaCTDH treated with 2 M urea overnight, preparative column, 40 mM Tris-HCl pH 8 with 2 M urea
[4] = molecular target: Anabaena (Nostoc) PCC 7120 apo-CTDH (carotenoid-free C-terminal domain homolog of Orange Carotenoid Protein) (Anabaena (Nostoc) PCC 7120); experiment: native gel or EMSA; purified apo-AnaCTDH on 15% native polyacrylamide gel, pH 8 (25 mM Tris-HCl, 192 mM glycine), non-reducing
[5] = molecular target: the molecule itself; experiment: SAXS; batch mode, 270 µM per monomer, 20 mM Tris-HCl pH 7.6, 150 mM NaCl, 0.1 mM EDTA, 2 mM dithiothreitol, 3% glycerol

T1 sequence (A0ACD6B996 entry or part of it C103F): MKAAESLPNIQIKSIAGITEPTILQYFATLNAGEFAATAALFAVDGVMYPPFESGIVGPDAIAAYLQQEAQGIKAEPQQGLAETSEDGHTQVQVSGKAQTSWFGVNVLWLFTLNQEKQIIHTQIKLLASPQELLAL
T2 sequence (A0ACD6B996 entry or part of it C103F/DEL126-136): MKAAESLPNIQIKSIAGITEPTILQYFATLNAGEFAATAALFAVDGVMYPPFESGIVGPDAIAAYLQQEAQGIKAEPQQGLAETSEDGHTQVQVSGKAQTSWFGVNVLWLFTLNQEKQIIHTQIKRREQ

- % holo-protein formed [1]: 100%
- % holo-protein formed [2]: 20(±5) %
Molecule: CC1=C(/C=C/C(C)=C/C=C/C(C)=C/C=C/C=C(C)/C=C/C=C(C)/C=C/C2=C(C)C(=O)CCC2(C)C)C(C)(C)CCC1=O [canthaxanthin]

- stoichiometry N [3]: 2
- stoichiometry N [4]: 2
Molecule: Anabaena (Nostoc) PCC 7120 apo-CTDH (carotenoid-free C-terminal domain homolog of Orange Carotenoid Protein) (natural protein)

B1: Apo-CTD from Synechocystis OCP (residues 165-317) (domain or fragment, Synechocystis 6803, UniProt P74102 165-317, looked up)
chain: AGKDGKRIAEPVVPPQDTASRTKVSIEGVTNATVLNYMDNLNANDFDTLIELFTSDGALQPPFQRPIVGKENVLRFFREECQNLKLIPERGVTEPAEDGFTQIKVTGKVQTPWFGGNVGMNIAWRFLLNPEGKIFFVAIDLLASPKELLNFAR
notes: C-terminal domain of the Orange Carotenoid Protein of Synechocystis 6803, residues 165-317 (of 317); 18.7 kDa construct with an uncleavable N-terminal hexahistidine tag; carotenoid-free; The SAXS modelling counts 23 flexible N-terminal residues (tag and linker included) and 12 C-terminal ones; also called apo-OCP-CTD; CTD-OCP; not shown: His6, N-terminal, kept
- stoichiometry N [5]: 2
